Source: FireProtDB
Values joined by “and” are separate entries in the source; they are usually repeats but may differ in a detail not shown here. Equal entries are not always repeated.

Conditions: whole UniProt chain shown
[1] = Aspergillus oryzae (strain ATCC 42149 / RIB 40), pH 1, Thermal, NMR, HCl, KCl 0.15 M, reversible: yes
[2] = Aspergillus oryzae (strain ATCC 42149 / RIB 40), pH 1.2, 25 °C, Thermal, Absorbance, glycine-HCl 30 mM, NaCl 0.10 M
[3] = Aspergillus oryzae (strain ATCC 42149 / RIB 40), pH 1.6, Thermal, CD, HCl, reversible: yes
[4] = Aspergillus oryzae (strain ATCC 42149 / RIB 40), pH 2, 15 °C, GdnHCl, CD, HCl, reversible: yes
[5] = Aspergillus oryzae (strain ATCC 42149 / RIB 40), pH 2.08, Thermal, CD, HCl, reversible: yes
[6] = Aspergillus oryzae (strain ATCC 42149 / RIB 40), pH 2.2, Thermal, Absorbance, glycine 50 mM
[7] = Aspergillus oryzae (strain ATCC 42149 / RIB 40), pH 2.2, Thermal, CD, glycine 50 mM
[8] = Aspergillus oryzae (strain ATCC 42149 / RIB 40), pH 2.2, Thermal, Fluorescence, glycine 50 mM
[9] = Aspergillus oryzae (strain ATCC 42149 / RIB 40), pH 2.5, Thermal, DSC, glycine 50 mM, NaCl 200 mM, reversible: yes
[10] = Aspergillus oryzae (strain ATCC 42149 / RIB 40), pH 4.4, Thermal, NMR, Unknown
[11] = Aspergillus oryzae (strain ATCC 42149 / RIB 40), pH 4.5, Thermal, DSC, Potassium acetate 50 mM, reversible: no
[12] = Aspergillus oryzae (strain ATCC 42149 / RIB 40), pH 4.6, 25 °C, GdnHCl, Absorbance, Sodium acetate 100 mM, reversible: yes
[13] = Aspergillus oryzae (strain ATCC 42149 / RIB 40), pH 4.6, 30 °C, GdnHCl, Absorbance, Sodium acetate 100 mM, reversible: yes
[14] = Aspergillus oryzae (strain ATCC 42149 / RIB 40), pH 4.6, 35 °C, GdnHCl, Absorbance, Sodium acetate 100 mM, reversible: yes
[15] = Aspergillus oryzae (strain ATCC 42149 / RIB 40), pH 4.6, Thermal, Absorbance, Sodium acetate 50 mM
[16] = Aspergillus oryzae (strain ATCC 42149 / RIB 40), pH 5, 10 °C, GdnHCl, Fluorescence, Sodium acetate 50 mM
[17] = Aspergillus oryzae (strain ATCC 42149 / RIB 40), pH 5, Thermal, Absorbance, Sodium acetate 50 mM, reversible: Yes
[18] = Aspergillus oryzae (strain ATCC 42149 / RIB 40), pH 5, Thermal, Absorbance, Sodium acetate 0.10 M, NaCl 0.10 M, reversible: yes
[19] = Aspergillus oryzae (strain ATCC 42149 / RIB 40), pH 5, Thermal, Absorbance, sodium acetate 5-20 mM, reversible: yes
[20] = Aspergillus oryzae (strain ATCC 42149 / RIB 40), pH 5, Thermal, CD, sodium acetate 5-20 mM, reversible: yes
[21] = Aspergillus oryzae (strain ATCC 42149 / RIB 40), pH 5, Thermal, DSC, acetate 50 mM, reversible: no
[22] = Aspergillus oryzae (strain ATCC 42149 / RIB 40), pH 5, Thermal, Fluorescence, Sodium acetate 0.05 M, reversible: yes
[23] = Armoracia rusticana, pH 7.4, 21 °C, GdnHCl, CD, Sodium phosphate 20 mM, CaCl2 1 mM, reversible: yes
[24] = Armoracia rusticana, pH 7.4, 21 °C, GdnHCl, Fluorescence, Sodium phosphate 20 mM, CaCl2 1 mM, reversible: yes

B1: wild type, Q7M1T4 (protein)
chain: ASQTITVGPWGGPGGNGWDDGSYTGIRQIELSYKEAIGSFSVIYDLNGEPFSGPKHTSKLPYKNVKIELRFPDEFLESVSGYTAPFSALATPTPVVRSLTFKTNKGRTFGPYGDEEGTYFNLPIENGLIVGFKGRTGDLLDAIGVHMAL
Tm (Artocarpus integer, pH 7.4, Thermal, CD, phosphate buffered saline (PBS) 10 mM, NaCl 150 mM, reversible: no): 65.8 °C | Tm (Artocarpus integer, pH 7.4, Thermal, Fluorescence, phosphate buffered saline (PBS) 10 mM, NaCl 150 mM, reversible: no): 63.9 °C

B2: Thioredoxin wild type, P80579 (protein)
chain: ATMTLTDANFQQAIQGDKPVLVDFWAAWCGPCRMMAPVLEEFAEAHADKVTVAKLNVDENPETTSQFGIMSIPTLILFKGGRPVKQLIGYQPKEQLEAQLADVLQ
denaturant midpoint (higher = more stable) (Alicyclobacillus acidocaldarius subsp. acidocaldarius, pH 7, GdHCl, CD, Sodium phosphate 10 mM, reversible: yes): 2.9 M | Tm (Alicyclobacillus acidocaldarius subsp. acidocaldarius, pH 7, Thermal, CD, Sodium phosphate 10 mM, reversible: yes): 84.5 °C and 88.2 °C | denaturant midpoint (higher = more stable) (Alicyclobacillus acidocaldarius subsp. acidocaldarius, pH 7, Urea, CD, Sodium phosphate 10 mM, reversible: yes): 6.7 M

B3: Guanyl-specific ribonuclease T1 wild type, P00651 (protein)
chain: MMYSKLLTLTTLLLPTALALPSLVERACDYTCGSNCYSSSDVSTAQAAGYQLHEDGETVGSNSYPHKYNNYEGFDFSVSSPYYEWPILSSGDVYSGGSPGADRVVFNENNQLAGVITHTGASGNNFVECT
Tm [1]: 42.4 °C | heat capacity change of unfolding [1]: 1.79 kcal/mol/K | unfolding enthalpy (van 't Hoff) [1]: 43.2 kcal/mol | heat capacity change of unfolding [2]: 1.47 kcal/mol/K | unfolding enthalpy (van 't Hoff) [2]: 54.8 kcal/mol | unfolding free energy [2]: 1 kcal/mol | Tm [3]: 23 °C | unfolding free energy [3]: 1.72 kcal/mol | Tm (Aspergillus oryzae (strain ATCC 42149 / RIB 40), pH 1.9, Thermal, CD, HCl, reversible: yes): 25.8 °C | denaturant midpoint (higher = more stable) [4]: 1.86 M | unfolding free energy [4]: 3.68 kcal/mol | Tm [5]: 28.7 °C | unfolding free energy [5]: 3.16 kcal/mol | Tm [6]: 8.3 °C | unfolding enthalpy (van 't Hoff) [6]: 49 kcal/mol | Tm [7]: 20.2 °C | unfolding enthalpy (van 't Hoff) [7]: 20 kcal/mol | Tm [8]: 9.3 °C | unfolding enthalpy (van 't Hoff) [8]: 24 kcal/mol | Tm [9]: 40 °C | heat capacity change of unfolding [9]: 1.15 kcal/mol/K | unfolding enthalpy (calorimetric) [9]: 85 kcal/mol | Tm [10]: 52.3 °C | unfolding enthalpy (van 't Hoff) [10]: 127 kcal/mol | Tm [11]: 57 °C | unfolding enthalpy (calorimetric) [11]: 106 kcal/mol | denaturant m value [12]: 2.56 kcal/mol/M | denaturant midpoint (higher = more stable) [12]: 2.82 M | unfolding free energy [12]: 7.22 kcal/mol | denaturant m value [13]: 2.65 kcal/mol/M | denaturant midpoint (higher = more stable) [13]: 2.56 M | unfolding free energy [13]: 6.59 kcal/mol | denaturant m value [14]: 2.48 kcal/mol/M | denaturant midpoint (higher = more stable) [14]: 2.25 M | unfolding free energy [14]: 5.6 kcal/mol | Tm [15]: 56.2 °C | unfolding enthalpy (van 't Hoff) [15]: 107 kcal/mol | denaturant m value [16]: 1.84 kcal/mol/M | denaturant midpoint (higher = more stable) [16]: 5.18 M | unfolding free energy [16]: 9.54 kcal/mol | unfolding free energy (Aspergillus oryzae (strain ATCC 42149 / RIB 40), pH 5, 25 °C, GdnHCl, CD, Sodium acetate-Acetic acid 0.1 M, reversible: yes): 10.5 kcal/mol | unfolding free energy (Aspergillus oryzae (strain ATCC 42149 / RIB 40), pH 5, 25 °C, GdnHCl, DSC, Sodium acetate-Acetic acid 0.1 M, reversible: yes): 11 kcal/mol | unfolding free energy (Aspergillus oryzae (strain ATCC 42149 / RIB 40), pH 5, 40 °C, Thermal, Absorbance, Sodium acetate 50 mM, reversible: Yes): 5.06 kcal/mol | Tm [17]: 58 °C | unfolding enthalpy (van 't Hoff) [17]: 104 kcal/mol | Tm (Aspergillus oryzae (strain ATCC 42149 / RIB 40), pH 5, Thermal, Absorbance, Sodium acetate 50 mM, reversible: yes): 44.4 °C | Tm [18]: 63.3 °C | unfolding enthalpy (van 't Hoff) [18]: 118 kcal/mol | Tm (Aspergillus oryzae (strain ATCC 42149 / RIB 40), pH 5, Thermal, Absorbance, sodium acetate 50 mM, reversible: yes): 61.5 °C | Tm [19]: 58.2 °C | unfolding enthalpy (van 't Hoff) [19]: 102 kcal/mol | Tm (Aspergillus oryzae (strain ATCC 42149 / RIB 40), pH 5, Thermal, CD, sodium acetate 50 mM): 53.7 °C | Tm [20]: 64.3 °C | unfolding enthalpy (van 't Hoff) [20]: 90.8 kcal/mol | Tm [21]: 58.9 °C | unfolding enthalpy (calorimetric) [21]: 89.6 kcal/mol | Tm (Aspergillus oryzae (strain ATCC 42149 / RIB 40), pH 5, Thermal, Fluorescence, Sodium acetate 0.01 M, reversible: yes (>98%)): 58.8 °C | Tm [22]: 56.7 °C | unfolding enthalpy (van 't Hoff) [22]: 117 kcal/mol | Tm (Aspergillus oryzae (strain ATCC 42149 / RIB 40), pH 5, Thermal, Fluorescence, Sodium formate 0.1 M, NaCl 0.25 M, reversible: yes): 59.3 °C

B4: Peroxidase C2 wild type, P17179 (protein)
chain: MHSSSSLIKLGFLLLLLNVSLSHAQLSPSFYDKTCPQVFDIATNTIKTALRSDPRIAASILRLHFHDCFVNGCDASILLDNTTSFRTEKDAFGNARSARGFDVIDTMKAAVEKACPKTVSCADLLAIAAQKSVVLAGGPSWKVPSGRRDSLRGFMDLANDNLPGPSSTLQVLKDKFRNVGLDRPSDLVALSGGHTFGKNQCQFIMDRLYNFSNSGKPDPTLDKSYLSTLRKQCPRNGNLSVLVDFDLRTPTIFDNKYYVNLKENKGLIQSDQELFSSPDASDTIPLVRAYADGQGKFFDAFVEAMIRMGNLSPSTGKQGEIRLNCRVVNSKPKIMDVVDTNDFASSI
Tm (Armoracia rusticana, pH 7, Thermal, Fluorescence, Unknown, reversible: yes): 74 °C | denaturant m value [23]: 1.8 kcal/mol/M | unfolding free energy [23]: 1.82 kcal/mol | denaturant m value [24]: 0.3 kcal/mol/M | unfolding free energy [24]: 2.2 kcal/mol
